From the supplement of paper PMC9170038

Tested on: MS2 coat protein
Assay: apparent KD of MS2 coat protein; designed switch direction (-1 OFF switch, 1 ON switch): -1; higher = weaker reporter binding
How it was run: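 SNAP-549-labelled MS2 coat protein was titrated, doubling from 0.7 or 1.5 nM to 3 µM, over designed RNA switches transcribed on Illumina chips by stalled E. coli RNA polymerase. Runs were done without input, with 200 uM small-molecule ligand, or with an oligonucleotide input. Apparent KD is the per-design median over clusters of curve-fitted normalised fluorescence.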

[1] = Eterna round: R95, input ligand: microRNA oligo, concentration not stated
[2] = Eterna round: R95, input ligand: FMN 200 uM
[3] = Eterna round: R95, input ligand: none
[4] = input ligand: microRNA oligo, concentration not stated

AGUGUGAGGCAGGAUAUGCAAUUUGUAAGUAAUGCAGAAGGGUCUACAUGAGGAUCACCCAUGUGUGCGGUUGA [Ex6 #11] (Eterna round: R97, puzzle: Exclusion 6)
apparent KD of MS2 coat protein (input ligand: FMN 200 uM): 0.447 µM
apparent KD of MS2 coat protein (input ligand: none): 0.246 µM

AGUGUGUGGCAGGAUAUGCAAUUAAUAGGUGAAGCAGAAGGGUCUACAUGAGGAUCACCCAUGUGUGCGGUUGA [Ex6 #22] (Eterna round: R97, puzzle: Exclusion 6)
apparent KD of MS2 coat protein (input ligand: FMN 200 uM): 0.154 µM
apparent KD of MS2 coat protein (input ligand: none): 0.139 µM

AGUUAUUCAGGAUAUGGUGUGUUAUACAUGAGGAUCACCCAUGUGGGUCAUGGUUAGGCCUCAGAAGGGAAUGUUA [salish99_ex5_r4_125] (Eterna round: R97, puzzle: Exclusion 5)
apparent KD of MS2 coat protein (input ligand: FMN 200 uM): 0.796 µM
apparent KD of MS2 coat protein (input ligand: none): 1.1 µM

AGUUCACAUGAGGAUCACCCAUGUGAGGAUAUGGUUUCGCUGGCCGUAGCCAGUGGAACCAGAAGGCGCAUGAU [Mat - Exclusion 1 - JL Mod - D14] (Eterna round: R97, puzzle: Exclusion 1)
apparent KD of MS2 coat protein (input ligand: FMN 200 uM): 0.0386 µM
apparent KD of MS2 coat protein (input ligand: none): 0.0345 µM

AGUUGGCGAGGAUAUACAUGAGGAUCACCCAUGUGAGAGAUACUAGUGAGGUCGAUUGGUAGAAGGCGCUGACA [Mat - Exclusion 3 - Mod of JL D80] (puzzle: Exclusion 3)
apparent KD of MS2 coat protein [1]: 0.0915 µM

AGUUGGCGAGGAUAUACAUGAGGAUCACCCAUGUGAGAGAUACUAGUGAGGUCGAUUGGUAGAAGGCGCUGACA [Mat X3R4 m19] (Eterna round: R97, puzzle: Exclusion 3)
apparent KD of MS2 coat protein (input ligand: FMN 200 uM): 0.0708 µM
apparent KD of MS2 coat protein (input ligand: none): 0.105 µM

AUAAAUAAGGAGGAUAUCGUAUCGGAAACGAUACGAGAAGGCCUAACAUGAGGAUCACCCAUGUUCCUUAAAUA [Mat - Exclusion 6 - Eli Mod - D62] (puzzle: Exclusion 6)
apparent KD of MS2 coat protein [2]: 0.0409 µM
apparent KD of MS2 coat protein [1]: 0.0241 µM
apparent KD of MS2 coat protein [3]: 0.0216 µM

AUAAAUCAUGUAGGAUAUGUGUGGCGAAGCUAUACAGAAGGACAUGAGGAUCACCCAUGUUCUUCCGUCUGCGUACAGACGGAA [11th something] (Eterna round: R96, puzzle: Exclusion NG 1)
apparent KD of MS2 coat protein (input ligand: FMN 200 uM): 0.228 µM
apparent KD of MS2 coat protein [4]: 0.0191 µM
apparent KD of MS2 coat protein (input ligand: none): 0.029 µM

AUAACAAGCUUUUUGCUCGUCGUAUAUGACGCUCGAGUCACAUGAGGAUCACCCAUGUCUUCCUGUUUGAUUGUUGA [JR_SV3TOV2_Sub056] (puzzle: Sensor v3, turn-off variant 2)
apparent KD of MS2 coat protein [2]: 0.148 µM
apparent KD of MS2 coat protein [1]: 0.122 µM
apparent KD of MS2 coat protein [3]: 0.177 µM

AUAACUCUAGUCAGGAUAUGCGAGCAAGGAUUAGAGCAGAAGGGACAUGAGGAUCACCCAUGUGGUAGCUGGGU [Indiraa] (puzzle: Brourd's mod of Exclusion 4)
apparent KD of MS2 coat protein [2]: 0.0336 µM
apparent KD of MS2 coat protein [1]: 0.0473 µM
apparent KD of MS2 coat protein [3]: 0.0775 µM

AUAAGUGAUAAGGAUAUUACUAGCCUCGGCUAGUGAGAAGGUAUCACAUGAGGAUCACCCAUGUGUUCCAAUAA [Ex6/7-B2] (Eterna round: R97, puzzle: Exclusion 6)
apparent KD of MS2 coat protein (input ligand: FMN 200 uM): 0.297 µM
apparent KD of MS2 coat protein (input ligand: none): 0.119 µM

AUAAUGUGAGGAUAUCACGGCCCGAUGAGUACGGUAAACGAUGAGAAGGCACAUGAGGAUCACCCAUGUUCCUG [EX4 A.15] (Eterna round: R97, puzzle: Exclusion 4)
apparent KD of MS2 coat protein (input ligand: FMN 200 uM): 0.0478 µM
apparent KD of MS2 coat protein (input ligand: none): 0.0114 µM

AUAAUGUGAGGAUAUCAGUCGACUAGCCUCGGCUAGUCGACUGAGAAGGCACAUGAGGAUCACCCAUGUGUUUC [E4/15-A2] (Eterna round: R97, puzzle: Exclusion 4)
apparent KD of MS2 coat protein (input ligand: FMN 200 uM): 0.0439 µM
apparent KD of MS2 coat protein (input ligand: none): 0.0184 µM

AUAAUGUGAGGAUAUCAGUCGACUAGCCUCGGCUAGUCGACUGAGAAGGUACAUGAGGAUCACCCAUGUAGAUC [E4/20-A2] (Eterna round: R97, puzzle: Exclusion 4)
apparent KD of MS2 coat protein (input ligand: FMN 200 uM): 0.0843 µM
apparent KD of MS2 coat protein (input ligand: none): 0.0264 µM

AUAAUGUGAGGAUAUCAGUCGACUAGCCUCGGCUAGUCGACUGAGAAGGUACAUGAGGAUCACCCAUGUGGUUC [E4/11-B2] (Eterna round: R97, puzzle: Exclusion 4)
apparent KD of MS2 coat protein (input ligand: FMN 200 uM): 0.882 µM
apparent KD of MS2 coat protein (input ligand: none): 0.429 µM

AUAAUGUGAGGAUAUCAGUCGACUAGCGAUAGCUAGUCGACUGAGAAGGUACAUGAGGAUCACCCAUGUAGAUC [E4/20-A4] (Eterna round: R97, puzzle: Exclusion 4)
apparent KD of MS2 coat protein (input ligand: FMN 200 uM): 0.0706 µM
apparent KD of MS2 coat protein (input ligand: none): 0.031 µM

AUAAUGUGAGGAUAUCGAGACUACUGCUUCGGCAGUAGUCUCGAGAAGGCACAUGAGGAUCACCCAUGUGAUCA [E4/2-A1] (Eterna round: R97, puzzle: Exclusion 4)
apparent KD of MS2 coat protein (input ligand: FMN 200 uM): 0.0566 µM
apparent KD of MS2 coat protein (input ligand: none): 0.685 µM

AUACCACGAGGAUAUCGACUAUACCACAUGAGGAUCACCCAUGUUAUCCAUGUUUCGUUUCGAGAAGGCGUGGGUU [JR_E5_Sub073] (puzzle: Exclusion 5)
apparent KD of MS2 coat protein [1]: 0.0323 µM

AUAGAUCGAGUUAGGAUAUUGCAGGCCGAGUACAGCAAGAAGGAACAUGAGGAUCACCCAUGUAAACGUGGCUC [Eternabot (L1) Solution 53] (Eterna round: R97, puzzle: Brourd's mod of Exclusion 4)
apparent KD of MS2 coat protein (input ligand: FMN 200 uM): 0.0259 µM
apparent KD of MS2 coat protein (input ligand: none): 0.0177 µM

AUAGGAGGAGGAUAUACAUGAGGAUCACCCAUGUGAUCGCCGUAAAAUGCAGUUAGACGUAGAAGGUCUCCCGG [Eternabot (L2) Solution 77] (Eterna round: R97, puzzle: Exclusion 3)
apparent KD of MS2 coat protein (input ligand: FMN 200 uM): 0.0368 µM
apparent KD of MS2 coat protein (input ligand: none): 0.0347 µM

AUAUAGAUAGUCAGGAUAUGCUAGUGAUAACAGUAGCAGAAGGGACAUGAGGAUCACCCAUGUGGAUAGCGCAC [Brourd's EX4 #5] (Eterna round: R97, puzzle: Brourd's mod of Exclusion 4)
apparent KD of MS2 coat protein (input ligand: FMN 200 uM): 0.139 µM
apparent KD of MS2 coat protein (input ligand: none): 0.0397 µM

AUAUAGAUGGUCAGGAUAUGCUAGUGAUAACAGUAGCAGAAGGGACAUGAGGAUCACCCAUGUGGAUACCGCAC [Brourd's EX4 #7] (Eterna round: R97, puzzle: Brourd's mod of Exclusion 4)
apparent KD of MS2 coat protein (input ligand: FMN 200 uM): 0.122 µM
apparent KD of MS2 coat protein (input ligand: none): 0.0319 µM

AUAUUAAUAGUAAGGAUAUGCGUAUAUAUAAUUAUGCAGAAGGUACAUGAGGAUCACCCAUGUAUUAAUGUGUA [LRO-BmodExc4-02-Oppy's Opus] (Eterna round: R97, puzzle: Brourd's mod of Exclusion 4)
apparent KD of MS2 coat protein (input ligand: FMN 200 uM): 0.0135 µM
apparent KD of MS2 coat protein (input ligand: none): 0.013 µM

AUAUUAAUAUAGGAUAUCGAAUUUAUUAAUUAUCGAGAAGGAUAAACAUGAGGAUCACCCAUGUGGUAUCAUGG [Mat - Exclusion 6 - JL Mod - D39] (puzzle: Exclusion 6)
apparent KD of MS2 coat protein [1]: 0.256 µM

AUCAGCUCGUCAGGAUAUGCACAUGAGGAUCACCCAUGUAAGAUCAAGCUGCUUCGGCAGCAAGUGCAGAAGGGACGAGCUGAU [ENG2/9-B2] (Eterna round: R96, puzzle: Exclusion NG 2)
apparent KD of MS2 coat protein (input ligand: FMN 200 uM): 0.151 µM
apparent KD of MS2 coat protein [4]: 0.177 µM
apparent KD of MS2 coat protein (input ligand: none): 0.229 µM

AUCAGCUCGUGAGGAUAUACAUGAGGAUCACCCAUGUGGUCAAUAGCAGCUUCGGCUGCAUACAUGUAGAAGGCACGAGCUGAU [ENG2/7-A2] (Eterna round: R96, puzzle: Exclusion NG 2)
apparent KD of MS2 coat protein (input ligand: FMN 200 uM): 0.0366 µM
apparent KD of MS2 coat protein [4]: 0.0585 µM
apparent KD of MS2 coat protein (input ligand: none): 0.0301 µM

AUCAGCUCGUGAGGAUAUAUAUACAUGAGGAUCACCCAUGUAAGAUCAGGCUUCGGCCAAUGUAUAUAGAAGGCACGAGCUGAU [ENG2/11-A3] (Eterna round: R96, puzzle: Exclusion NG 2)
apparent KD of MS2 coat protein (input ligand: FMN 200 uM): 0.403 µM
apparent KD of MS2 coat protein [4]: 0.535 µM
apparent KD of MS2 coat protein (input ligand: none): 0.808 µM

AUCGUGCAGCUUUGCUGUACGAGUACAUGAGGAUCACCCAUGUAGGAUAUGGUACGCUUUGCGUGCUAGAAGGAUAUGUGUUAG [EX ENG3 1.43] (Eterna round: R96, puzzle: Exclusion NG 3)
apparent KD of MS2 coat protein (input ligand: FMN 200 uM): 0.0466 µM
apparent KD of MS2 coat protein [4]: 0.0348 µM
apparent KD of MS2 coat protein (input ligand: none): 0.0442 µM

AUCUAGUCAGGAUAUACGAACCGAUGAAUCGGACGGAACGAACAUGAGGAUCACCCAUGUAGAAGGGACACUCA [Candy Rainbow 2] (puzzle: Exclusion 2)
apparent KD of MS2 coat protein [1]: 0.142 µM

AUCUCCUCUGUCAGGAUAUAUAAACUGUUGCAGUGGUAGAAGGGACAUGAGGAUCACCCAUGUAAUAUAAAUAA [Bivege] (puzzle: Brourd's mod of Exclusion 4)
apparent KD of MS2 coat protein [1]: 0.0266 µM

AUGCCCUGAGGAUAUCUCAUCCCGCACAUGAGGAUCACCCAUGUUCUCCUCCGGGCUCCGAGAGAAGGCAGGCCUA [Armus7] (Eterna round: R97, puzzle: Exclusion 5)
apparent KD of MS2 coat protein (input ligand: FMN 200 uM): 0.0801 µM
apparent KD of MS2 coat protein (input ligand: none): 0.0535 µM

AUGCGCAAGCUUUUUGUUCACAUGAGGAUCACCCAUGUUAUGGUCGCCUGUGAGGAGCGAUAGCGUCUCCGACCUGA [Eternabot (Original) Solution 31] (Eterna round: R97, puzzle: Sensor, turn-off variant 1)
apparent KD of MS2 coat protein (input ligand: FMN 200 uM): 0.0357 µM
apparent KD of MS2 coat protein (input ligand: none): 0.0365 µM

AUGGACGCAGGAUAUACAUGAGGAUCACCCAUGUGAGGUAGGUAAGUAGGAAGUGAAGGUAGAAGGGCGAGAGA [JR_Exclu3_Sub096] (puzzle: Exclusion 3)
apparent KD of MS2 coat protein [1]: 0.0594 µM

AUGGGUACUUUCGGAGCGACAUGAGGAUCACCCAUGUAUGUUGAGGAUAUCCACUGCUAAGGACGGGAGAAGGCAGUGUACUGU [Ex NG3 #83] (Eterna round: R96, puzzle: Exclusion NG 3)
apparent KD of MS2 coat protein (input ligand: FMN 200 uM): 0.0261 µM
apparent KD of MS2 coat protein [4]: 0.016 µM
apparent KD of MS2 coat protein (input ligand: none): 0.0264 µM

AUGUGACAUGAGGAUCACCCAUGUCAGGAUAUUUCCAAAAUAAAAUAAAACCGCGUGGAAAGAAGGGACGUGGU [EX1 A.8] (Eterna round: R97, puzzle: Exclusion 1)
apparent KD of MS2 coat protein (input ligand: FMN 200 uM): 0.0234 µM
apparent KD of MS2 coat protein (input ligand: none): 0.0217 µM
